Measurements published in US20240301031A1 (JIANGSU HENGRUI PHARMACEUTICALS, published 2024).
One block for each binder: values may come before it.

What was measured:
[1] = biological target: T1, human BAFF (10056-HNCH, Sino biological) (human, UniProt Q9Y275 134-285); assay: ELISA, BAFF coated
T1 construct: Bought protein

[2] = biological target: T2, human APRIL (5860-AP-010/CF, R&D Systems) (human, UniProt O75888 115-250, limits assumed); assay: ELISA, APRIL coated
T2 construct: Bought protein
T2 sequence (looked up): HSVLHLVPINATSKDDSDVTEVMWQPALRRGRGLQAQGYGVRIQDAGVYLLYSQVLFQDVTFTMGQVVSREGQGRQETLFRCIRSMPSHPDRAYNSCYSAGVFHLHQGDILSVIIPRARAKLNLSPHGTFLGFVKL

[3] = biological target: T3, IL-23 (R&D Systems, 1290-IL-010) (UniProt Q9NPF7 20-189; P29460 23-328); assay: cell-based or functional assay
T3 sequence (looked up) 1: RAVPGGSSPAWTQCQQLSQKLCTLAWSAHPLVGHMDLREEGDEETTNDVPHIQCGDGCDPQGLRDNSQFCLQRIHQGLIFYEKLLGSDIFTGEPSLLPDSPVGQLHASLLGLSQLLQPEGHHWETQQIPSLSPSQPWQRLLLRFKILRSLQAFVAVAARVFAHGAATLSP
T3 sequence (looked up) 2: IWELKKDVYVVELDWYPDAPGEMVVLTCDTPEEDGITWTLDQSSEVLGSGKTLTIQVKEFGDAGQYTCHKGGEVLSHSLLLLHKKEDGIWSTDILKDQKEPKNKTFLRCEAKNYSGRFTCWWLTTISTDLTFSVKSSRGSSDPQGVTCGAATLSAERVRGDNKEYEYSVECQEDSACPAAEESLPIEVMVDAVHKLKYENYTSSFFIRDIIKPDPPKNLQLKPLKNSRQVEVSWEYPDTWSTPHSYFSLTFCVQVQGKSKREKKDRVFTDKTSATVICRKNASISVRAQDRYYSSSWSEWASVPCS

[4] = biological target: T4, IL-12/23 p40 (Sino biological, 10052-H08H) (UniProt P29460 23-328); assay: ELISA, IL-12/23 p40 coated, sample titrated
T4 construct: Bought protein
T4 sequence (looked up): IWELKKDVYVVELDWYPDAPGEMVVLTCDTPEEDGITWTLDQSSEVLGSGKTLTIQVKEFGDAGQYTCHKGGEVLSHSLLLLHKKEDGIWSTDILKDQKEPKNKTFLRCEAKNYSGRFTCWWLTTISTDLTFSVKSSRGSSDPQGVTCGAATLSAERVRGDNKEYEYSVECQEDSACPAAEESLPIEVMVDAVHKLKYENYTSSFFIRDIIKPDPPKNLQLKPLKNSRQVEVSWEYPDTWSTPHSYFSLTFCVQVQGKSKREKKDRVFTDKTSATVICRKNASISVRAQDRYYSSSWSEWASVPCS
Procedure: The binding activity of the antibodies or fusion proteins for BAFF, APRIL, and IL-12/23 p40 was assayed by the ELISA method (coating an antigen protein). The specific procedures were as follows:
A BAFF (Sino biological, 10056-HNCH), APRIL (R&D Systems, 5860-AP-010/CF), or IL-12/23 p40 (Sino biological, 10052-H08H) protein was diluted to 1 μg/mL with a PBS (BasalMedia, B320) buffer at pH 7.4, and added to a 96-well microplate (Corning, 3590) at 100 μL/well. The plate was incubated at 4° C. overnight. After the liquid was discarded, 300 μL of 5% skim milk (BD, 232100) diluted with PBS was added to each well for blocking, and the plate was incubated at 37° C. for 2 h. After the blocking was completed, the blocking solution was discarded, and the plate was washed 3 times with a PBST buffer (PBS at pH 7.4 containing 0.1% tween-20). 100 μL of test antibody or fusion protein solution diluted in a gradient was added to each well, and the plate was incubated at 37° C. for 1 h. After the incubation was completed, the plate was washed 3 times with PBST. […] The plate was washed 3 times with PBST. […] The plate was read for absorbance values at 450 nm on a microplate reader, the binding curves of the antibodies to an antigen were fitted with software, and the EC₅₀ values were calculated.

[5] = biological target: T4, IL-12/23 p40 (Sino biological, …); assay: competition ELISA: biotin-labeled p40 to coated IL-12Rβ1
Procedure: (§1) A receptor protein was diluted to 2 μg/mL with PBS at pH 7.4 (BasalMedia, B320) and added to a 96-well microplate (Corning, 3590) at 100 μL/well. The plate was incubated at 4° C. overnight. After the liquid was discarded, 200 μL of 1% Casein blocking solution (Thermo, 37528) was added to each well for blocking, and the plate was incubated at 37° C. for 2 h. After the blocking was completed, the blocking solution was discarded, and the plate was washed 3 times with a PBST buffer (PBS at pH 7.4 containing 0.1% tween-20) for later use. A biotin-labeled ligand protein at a fixed concentration was mixed with the antibody or fusion protein diluted in gradient, pre-incubated at 37° C. for 30 min, and added to a blocked microplate. The plate was incubated at 37° C. for 1.5 h. After the incubation was completed, the plate was washed 3 times with PBST. 100 μL of streptavidin-HRP (Invitrogen, 434323, diluted at a ratio of 1:4000) was added to each well, and the plate was incubated at 37° C. for 1 h. The supernatant was removed, and the plate was washed 3 times with PBST. […] The plate was read for absorbance values at 450 nm on a microplate reader, the curves for the inhibition of the binding of the ligands to the receptors were fitted with software, and the IC₅₀ values were calculated. […]

[6] = biological target: T5, human IL-23 (CT048-H08H, Sino biological) (human, UniProt Q9NPF7 20-189; P29460 23-328); assay: SPR (Biacore), sample captured on Protein A, antigen flowed, 1:1 fit
T5 construct: Bought heterodimer
T5 sequence (looked up) 1: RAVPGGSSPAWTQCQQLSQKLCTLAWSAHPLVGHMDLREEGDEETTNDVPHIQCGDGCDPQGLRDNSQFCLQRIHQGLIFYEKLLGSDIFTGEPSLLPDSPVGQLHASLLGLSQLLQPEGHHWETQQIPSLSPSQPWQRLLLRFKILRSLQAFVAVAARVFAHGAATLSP
T5 sequence (looked up) 2: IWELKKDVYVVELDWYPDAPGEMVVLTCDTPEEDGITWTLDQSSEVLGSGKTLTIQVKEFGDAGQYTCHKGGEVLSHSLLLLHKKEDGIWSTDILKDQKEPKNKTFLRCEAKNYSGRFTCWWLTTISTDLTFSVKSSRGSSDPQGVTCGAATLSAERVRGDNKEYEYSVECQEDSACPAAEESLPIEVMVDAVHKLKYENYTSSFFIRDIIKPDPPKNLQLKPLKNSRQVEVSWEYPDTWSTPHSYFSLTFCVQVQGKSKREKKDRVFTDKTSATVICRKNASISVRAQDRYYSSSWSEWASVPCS
Procedure: (§2) A certain amount of test sample was subjected to affinity capture by a biosensor chip Protein A (GE, 29127556), then antigens at a series of concentration gradients were allowed to flow on the surface of the chip. The reaction signals were detected in real time by using Biacore (GE, 8K) to obtain association and dissociation curves. After the dissociation was completed for each cycle, the biochip was washed and regenerated with a 10 mM glycine-hydrochloric acid solution at pH 1.5 (GE, BR-1003-54). The experimental data were fitted using BIAevaluation version 4.1, GE software with a 1:1 model to obtain affinity values. The related antigen proteins used in this assay are as follows: human IL-23 (CT048-H08H, Sino biological), human IL-12 (CT050-H08H, Sino biological), human BAFF (10056-HNCH, Sino biological), human APRIL (5860-AP-010/CF, R&D Systems), cynomolgus monkey p40 (10215-CL, R&D Systems), cynomolgus monkey BAFF (BAF-CM412B, Kactus), cynomolgus monkey APRIL (APR-CM410B, Kactus), mouse BAFF (BAF-M521y, Acro Biosystems), and mouse APRIL (7907-AP/CF, R&D Systems).

[7] = biological target: T6, human IL-12 (CT050-H08H, Sino biological) (human, UniProt P29459 23-219; P29460 23-328); assay: as above
T6 construct: Bought heterodimer
T6 sequence (looked up) 1: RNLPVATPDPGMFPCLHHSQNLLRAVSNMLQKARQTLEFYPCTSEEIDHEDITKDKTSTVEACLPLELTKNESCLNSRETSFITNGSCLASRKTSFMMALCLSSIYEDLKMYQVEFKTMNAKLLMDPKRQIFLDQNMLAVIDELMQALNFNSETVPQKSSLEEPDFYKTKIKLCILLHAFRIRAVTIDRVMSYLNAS
T6 sequence (looked up) 2: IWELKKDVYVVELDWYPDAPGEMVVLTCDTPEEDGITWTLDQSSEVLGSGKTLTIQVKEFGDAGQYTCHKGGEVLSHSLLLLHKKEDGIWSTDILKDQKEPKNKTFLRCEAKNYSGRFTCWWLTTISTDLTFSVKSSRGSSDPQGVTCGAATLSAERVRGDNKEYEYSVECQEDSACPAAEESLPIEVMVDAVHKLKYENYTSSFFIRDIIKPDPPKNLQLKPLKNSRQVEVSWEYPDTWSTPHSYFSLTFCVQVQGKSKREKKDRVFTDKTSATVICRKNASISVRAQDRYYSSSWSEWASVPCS
Procedure: as §2

[8] = biological target: T7, cynomolgus monkey p40 (10215-CL, R&D Systems) (cynomolgus monkey); assay: as above
T7 construct: Bought protein
Procedure: as §2

[9] = biological target: BAFF (R&D Systems, 7537-BF) (UniProt Q9Y275 134-285); assay: cell-based or functional assay
[10] = biological target: T4, IL-12/23 p40 (Sino biological, …); assay: ELISA, IL-12/23 p40 coated
[11] = biological target: T1, human BAFF (10056-HNCH, Sino biological); assay: competition ELISA: biotin-labeled BAFF to coated BCMA
Procedure: as §1

[12] = biological target: T1, human BAFF (10056-HNCH, Sino biological); assay: competition ELISA: biotin-labeled BAFF to coated TACI
Procedure: as §1

[13] = biological target: T1, human BAFF (10056-HNCH, Sino biological); assay: SPR (Biacore), sample captured on Protein A, antigen flowed, 1:1 fit
Procedure: as §2

[14] = biological target: T8, cynomolgus monkey BAFF (BAF-CM412B, Kactus) (cynomolgus monkey, UniProt A0A2K5V2X4 134-285); assay: as above
T8 construct: Bought protein
Procedure: as §2

[15] = biological target: T9, mouse BAFF (BAF-M521y, Acro Biosystems) (mouse, UniProt Q9WU72 127-309); assay: as above
T9 construct: Bought protein
Procedure: as §2

[16] = biological target: T1, human BAFF (10056-HNCH, Sino biological); assay: competition ELISA: BAFF-R coated on the plate, biotin-labelled BAFF at a fixed concentration pre-incubated with the diluted sample, streptavidin-HRP, OD450 (blocked ligand-receptor pair: BAFF/BAFF-R)
Procedure: as §1

binding result [1]: no binding
binding result [2]: no binding
IC50 (nM) for the inhibition of IL-23-induced IL-17 secretion [3]: 2.49 nM
EC50 [4]: 0.786 nM
IC50 [5]: 2.08 nM
Kd [6]: 0.0844 nM
koff [6]: 0.000107 s⁻¹
kon [6]: 1.26e+06 M⁻¹ s⁻¹
Kd [7]: 0.0387 nM
koff [7]: 0.00018 s⁻¹
kon [7]: 4.66e+06 M⁻¹ s⁻¹
Kd [8]: 0.254 nM
koff [8]: 0.000236 s⁻¹
kon [8]: 931000 M⁻¹ s⁻¹
B1: Ustekinumab (antibody, human IgG1, kappa, V domains shown)
VH: EVQLVQSGAEVKKPGESLKISCKGSGYSFTTYWLGWVRQMPGKGLDWIGIMSPVDSDIRYSPSFQGQVTMSVDKSITTAYLQWNSLKASDTAMYYCARRRPGQGYFDFWGQGTLVTVSS
VL: DIQMTQSPSSLSASVGDRVTITCRASQGISSWLAWYQQKPEKAPKSLIYAASSLQSGVPSRFSGSGSGTDFTLTISSLQPEDFATYYCQQYNIYPYTFGQGTKLEIKR
notes: Control antibody; also called anti-IL-12/IL-23 p40 subunit antibody ustekinumab

binding result [2]: no binding
IC50 (nM) for the inhibition of the BAFF-induced B cell proliferation [9]: 0.146 nM
binding result [10]: no binding
IC50 [11]: 0.458 nM
IC50 [12]: 0.567 nM
Kd [13]: 0.105 nM
koff [13]: 0.000171 s⁻¹
kon [13]: 1.64e+06 M⁻¹ s⁻¹
Kd [14]: 0.459 nM
koff [14]: 0.000221 s⁻¹
kon [14]: 481000 M⁻¹ s⁻¹
Kd [15]: 0.104 nM
koff [15]: 0.000144 s⁻¹
kon [15]: 1.38e+06 M⁻¹ s⁻¹
IC50 (read off the curve) [16]: ~0.7 nM
B2: Belimumab (antibody, human IgG1, lambda, V domains shown)
VH: QVQLQQSGAEVKKPGSSVRVSCKASGGTFNNNAINWVRQAPGQGLEWMGGIIPMFGTAKYSQNFQGRVAITADESTGTASMELSSLRSEDTAVYYCARSRDLLLFPHHALSPWGRGTMVTVSS
VL: SSELTQDPAVSVALGQTVRVTCQGDSLRSYYASWYQQKPGQAPVLVIYGKNNRPSGIPDRFSGSSSGNTASLTITGAQAEDEADYYCSSRDSSGNHWVFGGGTELTVLG
notes: Marketed control antibody; also called anti-BAFF antibody belimumab
